Molecular target: chicken N-cadherin (expressed from pMiwcN vector on LN2 mouse L cell transfectants) (chicken) (UniProt P10288)
Assay: flow cytometry of LN2 cells stained with NCD2 and FITC secondary antibody

Sequence of UniProt P10288 (P10288 165-912): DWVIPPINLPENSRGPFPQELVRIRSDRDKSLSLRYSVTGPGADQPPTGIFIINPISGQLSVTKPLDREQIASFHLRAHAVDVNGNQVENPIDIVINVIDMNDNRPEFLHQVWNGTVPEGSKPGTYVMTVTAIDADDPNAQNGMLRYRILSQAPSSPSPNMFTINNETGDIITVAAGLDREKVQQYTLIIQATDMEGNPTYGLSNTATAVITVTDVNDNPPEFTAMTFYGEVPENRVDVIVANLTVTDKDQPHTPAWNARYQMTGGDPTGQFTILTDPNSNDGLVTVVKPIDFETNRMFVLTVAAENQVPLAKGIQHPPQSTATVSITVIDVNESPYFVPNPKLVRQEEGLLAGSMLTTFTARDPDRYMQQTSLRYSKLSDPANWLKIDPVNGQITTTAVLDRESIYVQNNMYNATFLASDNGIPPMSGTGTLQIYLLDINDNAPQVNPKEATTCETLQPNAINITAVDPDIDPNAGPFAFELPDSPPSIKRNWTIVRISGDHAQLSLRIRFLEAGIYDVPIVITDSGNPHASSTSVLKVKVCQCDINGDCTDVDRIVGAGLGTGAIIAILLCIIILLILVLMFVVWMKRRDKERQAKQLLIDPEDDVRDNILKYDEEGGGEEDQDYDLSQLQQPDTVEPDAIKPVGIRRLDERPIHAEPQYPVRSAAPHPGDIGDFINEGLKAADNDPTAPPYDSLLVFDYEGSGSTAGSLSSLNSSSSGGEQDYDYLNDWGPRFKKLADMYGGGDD

## anti-chicken-N-Cadherin antibody (NCD2, Zymed, San Francisco, Calif.)
  mean channel fluorescence (mcf): 26.5 mcf

— patent US7033832
